Laboratory results: patent publication US20200002699 (published 2020)

How the values were obtained:
alpha-thrombin [1] = target: T1, alpha-thrombin (Homo sapiens, UniProt P00734;P00734 P00734:328-363,P00734:364-622); assay: filter; truncated form; 2 mM MgSO4 buffer
alpha-thrombin [2] = target: T1, alpha-thrombin; assay: BLI; ±0.002; kon 91.9e4 M-1 s-1, koff 4.12e-4 s-1; RNA immobilized on streptavidin sensor; 20 mM Tris pH 7.5, 150 mM NaCl, 2 mM MgSO4, 2 mg/mL BSA, 0.1% Tween-20
alpha-thrombin [3] = target: T1, alpha-thrombin; assay: filter; ±0.2; Fbmax 92.3; 20 mM Tris pH 7.5, 150 mM NaCl, 2 mM MgSO4, 50 ug/mL BSA, 22 C
alpha-thrombin [4] = target: T1, alpha-thrombin; assay: filter; NB, little or no binding; same buffer, 22 C
alpha-thrombin [5] = target: T1, alpha-thrombin; assay: filter; ±0.4; Fbmax 63.5; same buffer, 22 C
alpha-thrombin [6] = target: T1, alpha-thrombin; assay: filter; ±0.3; Fbmax 65.3; same buffer, 22 C
alpha-thrombin [7] = target: T1, alpha-thrombin; assay: filter; ±0.3; Fbmax 80.6; same buffer, 22 C
alpha-thrombin [8] = target: T1, alpha-thrombin; assay: filter; ±0.9; Fbmax 84.5; same buffer, 22 C
alpha-thrombin [9] = target: T1, alpha-thrombin; assay: filter; ±1.9; Fbmax 74.5; same buffer, 22 C
alpha-thrombin [10] = target: T1, alpha-thrombin; assay: filter; ±2.8; Fbmax 52.9; same buffer, 22 C
alpha-thrombin [11] = target: T1, alpha-thrombin; assay: filter; ±4.6; Fbmax 95.6; same buffer, 22 C

GUGUUCACAAGAUAGAGUAGACUAAGUGACAC (ssRNA) [Truncated clone 9]
Kd (alpha-thrombin [1]): 2 nM | Kd (alpha-thrombin [2]): 0.448 nM

B1: Clone 9 (ssRNA)
RNA: GGAGAGGGAAAGAGAACGAGCGGGUGUUCACAAGAUAGAGUAGACUAAGUGACACAAAGCCCGG
Kd (alpha-thrombin [3]): 1.4 nM

B2: Clone 5 (ssRNA)
RNA: GGAGAGGUAGGAGAACGAGCCUACCGUAAGAGAACGAGCAGACUCAAGUGACACAAAGCCCGG
binding result (alpha-thrombin [4]): no binding

B3: Clone 7 (ssRNA)
RNA: GGAGAGGGAAUGAUAACGAGCCCGAAGCUCGGAGAAGCACAGAAGCAAGUGACACAAAGCCCGG
binding result (alpha-thrombin [4]): no binding

B4: Clone 8 (ssRNA)
RNA: GGAGAGCGAAGAGAACGAGCGGGAUUGCACAAGAUAGCGUAGACUAAGUGACACAAAGCCCGG
Kd (alpha-thrombin [5]): 1.6 nM

B5: Clone 3 (ssRNA)
RNA: GGAGAGGGAAGGAGAACGAACCGGGACUCACAAGAUAGACAAUACUAAGUGACACAAAGCCCGG
Kd (alpha-thrombin [6]): 2.4 nM

B6: Clone 2 (ssRNA)
RNA: GGAGAGGUAAGUAGAACGAGCCCGGCGUCACAAGAUAGACAAAACUAAGUGACACAAAGCCCGG
Kd (alpha-thrombin [7]): 3.5 nM

B7: Clone 4 (ssRNA)
RNA: GGAGAGGGAAGGAGAACGGCUGCGGAUAACAAGAUAGCAAAGACUAAGUGACACAAAGCCCGG
Kd (alpha-thrombin [8]): 10 nM

B8: Clone 6 (ssRNA)
RNA: GGAGAGGGAAGGAGAACGAGCCGGGACACUAAGGAACAUAAAAGUUAAGUGACACAAAGCCCGG
Kd (alpha-thrombin [9]): 13.8 nM

B9: Clone 10 (ssRNA)
RNA: GGAGACGGAAGGAUAACGAGCGCUUUGACACAAGAUACAAUAUAGUAAGUGACACCAAGCCCGG
Kd (alpha-thrombin [10]): 36.4 nM

B10: Clone 1 (ssRNA)
RNA: GGAGAGAGAAGGAGAACGAGCUGUUACUCACAAAAUAGCGAAGACUAAGUGACACAAAGCCCGG
Kd (alpha-thrombin [11]): 44.7 nM
